One test addresses HIV-1_(92UG037-08) gp120 (HIV-1 (strain 92UG037-08, clade A)). The test is described as follows: SPR. (SPR reads the build-up and loss of mass on a sensor chip optically.)
Another test has as its target HIV-1_(SF162) gp120 (HIV-1 (strain SF162, clade B)). The test is described as follows: SPR.

The results in this text go back to publication PMC3652662 (Journal of molecular recognition : JMR, 2009).

Starred links: 1 amine or outer side, 2 acyl side, 3 side chain; linkers in the order of their positions; H or OH if unused. Non-standard residues stand in square brackets, D forms with d. No end group written: not given here. X1 = (2S,4S)‑4‑(4-ferrocenyl-1H-1,2,3-triazol-1-yl)pyrrolidine‑2‑carboxylic acid, O=C([C@@H]1C[C@H](n2cc(-[c-]3cccc3)nn2)CN1[*:1])[*:2].[Fe+2].c1cc[cH-]c1

The term Kd denotes the free concentration of one partner at which half of the binding sites on the other are occupied at equilibrium, for simple one-to-one binding. High values mean weaker binding, low ones tighter binding. For the molecule RINNI[X1]WSEAMM-NH2 [HNG-156, ferrocene triazole peptide conjugate], the values for the dissociation constant (Kd) with HIV-1_(92UG037-08) gp120 and with HIV-1_(SF162) gp120 were 16.3 nM and 9 nM, respectively.
